These results are taken from paper PMC12216489, “Deep mutational scanning identifies Cas1 and Cas2 variants that enhance type II-A CRISPR-Cas spacer acquisition” (Nature Communications, 2025).

Substitutions are numbered along the chain they refer to. In names and notes the source's numbering stands.

Holding throughout (assay): SEC; analytical SEC on Superdex 200 Increase 10/300 GL in SEC buffer (20 mM HEPES pH 7.5, 500 mM NaCl, 5% v/v glycerol, 5 mM DTT) at 4 °C; Cas1 variants (15-100 μM, 2 equiv.) mixed with Cas2 variants (1 equiv.), incubated at 4 °C for 1 h before injection; fractions analysed by SDS-PAGE
Common to all, as to details: both partners purified

The target of experiment [1] is T1, Streptococcus pyogenes Cas1 (S. pyogenes, UniProt Q99ZW1 1-289).
T1 construct: Cas1 of the Streptococcus pyogenes SF370 type II-A CRISPR-Cas locus; One of the plasmids pRAH246, pRAH248 or pRAH249; which plasmid holds which variant is in Supplementary Data 2; Fractions with cleaved Cas1 were pooled after SUMO protease digestion; also called wild-type Cas1; source: E. coli Rosetta 2(DE3) BL21, purified (Ni-NTA, SUMO protease, HiTrap Heparin, Superdex 200)
T1 sequence (looked up): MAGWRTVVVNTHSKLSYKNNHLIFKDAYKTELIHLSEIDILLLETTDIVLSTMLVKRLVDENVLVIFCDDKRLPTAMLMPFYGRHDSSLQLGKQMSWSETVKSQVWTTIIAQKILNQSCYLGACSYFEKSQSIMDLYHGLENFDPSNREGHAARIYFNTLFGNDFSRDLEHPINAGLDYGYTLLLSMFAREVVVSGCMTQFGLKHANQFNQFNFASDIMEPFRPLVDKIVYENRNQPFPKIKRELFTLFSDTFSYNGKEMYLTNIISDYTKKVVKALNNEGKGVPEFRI

Experiment [2] has as its target T2, Streptococcus pyogenes Cas1 R5A (S. pyogenes, UniProt Q99ZW1 1-289, R5A).
T2 construct: Cas1 of the Streptococcus pyogenes SF370 type II-A CRISPR-Cas locus with R5A; One of the plasmids pRAH246, pRAH248 or pRAH249; which plasmid holds which variant is in Supplementary Data 2; source: E. coli Rosetta 2(DE3) BL21, purified (Ni-NTA, SUMO protease, HiTrap Heparin, Superdex 200)
T2 sequence (looked up): T1 sequence (looked up) with R5A

For experiment [3], the target named is T3, Streptococcus pyogenes Cas1 R5K (S. pyogenes, UniProt Q99ZW1 1-289, R5K).
T3 construct: Cas1 of the Streptococcus pyogenes SF370 type II-A CRISPR-Cas locus with R5K; One of the plasmids pRAH246, pRAH248 or pRAH249; which plasmid holds which variant is in Supplementary Data 2; source: E. coli Rosetta 2(DE3) BL21, purified (Ni-NTA, SUMO protease, HiTrap Heparin, Superdex 200)
T3 sequence (looked up): T1 sequence (looked up) with R5K

B1: Streptococcus pyogenes Cas2 (natural protein, S. pyogenes, UniProt Q99ZW0 1-113, looked up)
chain: MSYRYMRMILMFDMPTDTAEERKAYRKFRKFLLSEGFIMHQFSIYSKLLLNNTANNAMIGRLREHNPNKGNITLLTVTEKQFARMIYLHGERNNCIANSDERLVFLGEAFDES
notes: Cas2 of the Streptococcus pyogenes SF370 type II-A CRISPR-Cas locus; One of the plasmids pRAH247, pRAH272 or pRAH273; which plasmid holds which variant is in Supplementary Data 2; Same protocol as for Cas1; also called wild-type Cas2; source: E. coli Rosetta 2(DE3) BL21, purified (Ni-NTA, SUMO protease, HiTrap Heparin, Superdex 200)
As for B1, the binding result in experiment [1], in experiment [2] and in experiment [3] was “binds” throughout.

B2: Streptococcus pyogenes Cas2 Y5A (natural protein, S. pyogenes, UniProt Q99ZW0 1-113, looked up)
chain: B1 chain with Y5A
notes: Cas2 of the Streptococcus pyogenes SF370 type II-A CRISPR-Cas locus with Y5A; One of the plasmids pRAH247, pRAH272 or pRAH273; which plasmid holds which variant is in Supplementary Data 2; source: E. coli Rosetta 2(DE3) BL21, purified (Ni-NTA, SUMO protease, HiTrap Heparin, Superdex 200)
B2: the binding result in experiment [1] is “binds”.

B3: Streptococcus pyogenes Cas2 Y5F (natural protein, S. pyogenes, UniProt Q99ZW0 1-113, looked up)
chain: B1 chain with Y5F
notes: Cas2 of the Streptococcus pyogenes SF370 type II-A CRISPR-Cas locus with Y5F; One of the plasmids pRAH247, pRAH272 or pRAH273; which plasmid holds which variant is in Supplementary Data 2; source: E. coli Rosetta 2(DE3) BL21, purified (Ni-NTA, SUMO protease, HiTrap Heparin, Superdex 200)
For the molecule B3, in experiment [1], the binding result is on record as “binds”.
